Here are results for 14 molecules from patent US20220033462A1 (ALLOGENE THERAPEUTICS, published 2022).

Positions count from the first letter of the chain named.

Experiment [1] addresses T1, biotinylated recombinant human PSMA-human IgG1 Fc fusion protein (human, UniProt Q04609 44-750, biotinylated (sites not given)).
T1 construct: Staining reagent; not shown: human IgG1 Fc
Kind of experiment: flow cytometry, reporter Jurkat cells co-expressing P-CAR1 (FIGS. 1-4).

Experiment [2] deals with T1, biotinylated recombinant human …. Kind of experiment: flow cytometry, reporter Jurkat cells co-expressing P-CAR2 (FIGS. 6-9).

T1 sequence (Q04609 44-750 limits assumed): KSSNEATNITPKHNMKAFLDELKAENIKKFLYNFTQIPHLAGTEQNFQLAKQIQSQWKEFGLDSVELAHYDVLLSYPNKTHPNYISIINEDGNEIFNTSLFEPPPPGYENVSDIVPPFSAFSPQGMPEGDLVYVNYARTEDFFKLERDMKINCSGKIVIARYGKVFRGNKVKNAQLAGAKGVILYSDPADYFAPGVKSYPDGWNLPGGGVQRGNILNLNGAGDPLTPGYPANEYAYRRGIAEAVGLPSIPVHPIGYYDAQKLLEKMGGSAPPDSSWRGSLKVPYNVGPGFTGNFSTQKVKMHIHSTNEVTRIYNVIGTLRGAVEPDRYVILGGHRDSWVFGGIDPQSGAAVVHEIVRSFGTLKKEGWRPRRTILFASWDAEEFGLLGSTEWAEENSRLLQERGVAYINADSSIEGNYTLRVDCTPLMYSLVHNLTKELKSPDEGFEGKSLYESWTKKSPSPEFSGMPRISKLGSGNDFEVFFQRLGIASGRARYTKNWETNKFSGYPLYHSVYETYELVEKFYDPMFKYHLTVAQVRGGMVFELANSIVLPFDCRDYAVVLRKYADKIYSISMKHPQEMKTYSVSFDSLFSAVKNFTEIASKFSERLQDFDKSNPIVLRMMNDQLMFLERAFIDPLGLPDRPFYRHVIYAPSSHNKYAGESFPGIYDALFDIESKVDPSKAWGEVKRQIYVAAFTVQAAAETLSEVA

B1: N-CAR SIRPA (SEQ ID No 1999 with intracellular domain SEQ ID No 2011) (other)
chain: EVQLQQSGPELVKPGTSVRISCKTSGYTFTEYTIHWVKQSHGKSLEWIGNINPNNGGTTYNQKFEDKATLTVDKSSSTAYMELRSLTSEDSAVYYCAAGWNFDYWGQGTTVTVSSGGGGSGGGGSGGGGSDIVMTQSHKFMSTSVGDRVSIICKASQDVGTAVDWYQQKPGQSPKLLIYWASTRHTGVPDRFTGSGSGTDFTLTITNVQSEDLADYFCQQYNSYPLTFGAGTMLDLKRAAATERRAEVPTAHPSPSPRPAGQFQTLVVGVVGGLLGSLVLLVWVLAVIRIRQKKAQGSTSSTRLHEPEKNAREITQDTNDITYADLNLPKGKKPAPQAAEPNNHTEYASIQTSPQPASEDTLTYADLDMVHLNRTPKQPAPKPEPSFSEYASVQVPRK
Take B1: the binding result in experiment [1] is listed as “binds”.

B2: N-CAR CD300LF (SEQ ID No 1999 with intracellular domain SEQ ID No 2007) (other)
chain: EVQLQQSGPELVKPGTSVRISCKTSGYTFTEYTIHWVKQSHGKSLEWIGNINPNNGGTTYNQKFEDKATLTVDKSSSTAYMELRSLTSEDSAVYYCAAGWNFDYWGQGTTVTVSSGGGGSGGGGSGGGGSDIVMTQSHKFMSTSVGDRVSIICKASQDVGTAVDWYQQKPGQSPKLLIYWASTRHTGVPDRFTGSGSGTDFTLTITNVQSEDLADYFCQQYNSYPLTFGAGTMLDLKRAAATERRAEVPTAHPSPSPRPAGQFQTLVVGVVGGLLGSLVLLVWVLAVIWRMMKYQQKAAGMSPEQVLQPLEGDLCYADLTLQLAGTSPQKATTKLSSAQVDQVEVEYVTMASLPKEDISYASLTLGAEDQEPTYCNMGHLSSHLPGRGPEEPTEYSTISRP
On to B2, for which the binding result in experiment [1] is given as “binds”.

B3: N-CAR PD1-KIR2DL2 (SEQ ID No 1999 with intracellular domain SEQ ID No 2017) (other)
chain: EVQLQQSGPELVKPGTSVRISCKTSGYTFTEYTIHWVKQSHGKSLEWIGNINPNNGGTTYNQKFEDKATLTVDKSSSTAYMELRSLTSEDSAVYYCAAGWNFDYWGQGTTVTVSSGGGGSGGGGSGGGGSDIVMTQSHKFMSTSVGDRVSIICKASQDVGTAVDWYQQKPGQSPKLLIYWASTRHTGVPDRFTGSGSGTDFTLTITNVQSEDLADYFCQQYNSYPLTFGAGTMLDLKRAAATERRAEVPTAHPSPSPRPAGQFQTLVVGVVGGLLGSLVLLVWVLAVICSRAARGTIGARRTGQPLKEDPSAVPVFSVDYGELDFQWREKTPEPPVPCVPEQTEYATIVFPSGMGTSSPARRGSADGPRSAQPLRPEDGHCSWPLHRWCSNKKNAAVMDQESAGNRTANSEDSDEQDPQEVTYTQLNHCVFTQRKITRPSQRPKTPPTDIIVYAELPNAESRSKVVSCP
With B3, the binding result in experiment [1] is “binds”.

B4: N-CAR PD1-L2-ITSM-L2-ITSM (SEQ ID No 1999 with intracellular domain SEQ ID No 2013) (other)
chain: EVQLQQSGPELVKPGTSVRISCKTSGYTFTEYTIHWVKQSHGKSLEWIGNINPNNGGTTYNQKFEDKATLTVDKSSSTAYMELRSLTSEDSAVYYCAAGWNFDYWGQGTTVTVSSGGGGSGGGGSGGGGSDIVMTQSHKFMSTSVGDRVSIICKASQDVGTAVDWYQQKPGQSPKLLIYWASTRHTGVPDRFTGSGSGTDFTLTITNVQSEDLADYFCQQYNSYPLTFGAGTMLDLKRAAATERRAEVPTAHPSPSPRPAGQFQTLVVGVVGGLLGSLVLLVWVLAVICSRAARGTIGARRTGQPLKEDPSAVPVFSVDYGELDFQWREKTPEPPVPCVPEQTEYATIDFQWREKTPEPPVPCVPEQTEYATIDFQWREKTPEPPVPCVPEQTEYATIVFPSGMGTSSPARRGSADGPRSAQPLRPEDGHCSWPL
For the molecule B4, in experiment [1], the binding result is on record as “binds”.

B5: N-CAR SIGLEC9 (SEQ ID No 1999 with intracellular domain SEQ ID No 2010) (other)
chain: EVQLQQSGPELVKPGTSVRISCKTSGYTFTEYTIHWVKQSHGKSLEWIGNINPNNGGTTYNQKFEDKATLTVDKSSSTAYMELRSLTSEDSAVYYCAAGWNFDYWGQGTTVTVSSGGGGSGGGGSGGGGSDIVMTQSHKFMSTSVGDRVSIICKASQDVGTAVDWYQQKPGQSPKLLIYWASTRHTGVPDRFTGSGSGTDFTLTITNVQSEDLADYFCQQYNSYPLTFGAGTMLDLKRAAATERRAEVPTAHPSPSPRPAGQFQTLVVGVVGGLLGSLVLLVWVLAVIVRSCRKKSARPAAGVGDTGIEDANAVRGSASQGPLTEPWAEDSPPDQPPPASARSSVGEGELQYASLSFQMVKPWDSRGQEATDTEYSEIKIHR
In the case of B5, in experiment [1], the binding result was “binds”.

B6: N-CAR PD1-L2-ITSM (SEQ ID No 1999 with intracellular domain SEQ ID No 2012) (other)
chain: EVQLQQSGPELVKPGTSVRISCKTSGYTFTEYTIHWVKQSHGKSLEWIGNINPNNGGTTYNQKFEDKATLTVDKSSSTAYMELRSLTSEDSAVYYCAAGWNFDYWGQGTTVTVSSGGGGSGGGGSGGGGSDIVMTQSHKFMSTSVGDRVSIICKASQDVGTAVDWYQQKPGQSPKLLIYWASTRHTGVPDRFTGSGSGTDFTLTITNVQSEDLADYFCQQYNSYPLTFGAGTMLDLKRAAATERRAEVPTAHPSPSPRPAGQFQTLVVGVVGGLLGSLVLLVWVLAVICSRAARGTIGARRTGQPLKEDPSAVPVFSVDYGELDFQWREKTPEPPVPCVPEQTEYATIDFQWREKTPEPPVPCVPEQTEYATIVFPSGMGTSSPARRGSADGPRSAQPLRPEDGHCSWPL
Turning to B6, in experiment [1], the binding result is “binds”.

B7: N-CAR PD1 (ITSM mut 1) (SEQ ID No 1999 with intracellular domain SEQ ID No 2014) (other)
chain: EVQLQQSGPELVKPGTSVRISCKTSGYTFTEYTIHWVKQSHGKSLEWIGNINPNNGGTTYNQKFEDKATLTVDKSSSTAYMELRSLTSEDSAVYYCAAGWNFDYWGQGTTVTVSSGGGGSGGGGSGGGGSDIVMTQSHKFMSTSVGDRVSIICKASQDVGTAVDWYQQKPGQSPKLLIYWASTRHTGVPDRFTGSGSGTDFTLTITNVQSEDLADYFCQQYNSYPLTFGAGTMLDLKRAAATERRAEVPTAHPSPSPRPAGQFQTLVVGVVGGLLGSLVLLVWVLAVICSRAARGTIGARRTGQPLKEDPSAVPVFSVDYGELDFQWREKTPEPPVPCVPEQTEYSEIVFPSGMGTSSPARRGSADGPRSAQPLRPEDGHCSWPL
In the case of B7, the binding result in experiment [1] is listed as “binds”.

B8: N-CAR PD1 (SEQ ID No 1999 with intracellular domain SEQ ID No 2000) (other)
chain: B7 chain with S346A, E347T
As to B8, the binding result in experiment [2] was “binds”.

B9: N-CAR PD1 (ITSM mut3) (SEQ ID No 1999 with intracellular domain SEQ ID No 2016) (other)
chain: B7 chain with S346A, E347S
Turning to B9, the binding result in experiment [1] is “binds”.

B10: N-CAR PD1 (ITSM mut 2) (SEQ ID No 1999 with intracellular domain SEQ ID No 2015) (other)
chain: B7 chain with I348V
Turning to B10, the binding result in experiment [1] was “binds”.

B11: N-CAR PECAM (SEQ ID No 1999 with intracellular domain SEQ ID No 2009) (other)
chain: EVQLQQSGPELVKPGTSVRISCKTSGYTFTEYTIHWVKQSHGKSLEWIGNINPNNGGTTYNQKFEDKATLTVDKSSSTAYMELRSLTSEDSAVYYCAAGWNFDYWGQGTTVTVSSGGGGSGGGGSGGGGSDIVMTQSHKFMSTSVGDRVSIICKASQDVGTAVDWYQQKPGQSPKLLIYWASTRHTGVPDRFTGSGSGTDFTLTITNVQSEDLADYFCQQYNSYPLTFGAGTMLDLKRAAATERRAEVPTAHPSPSPRPAGQFQTLVVGVVGGLLGSLVLLVWVLAVIKCYFLRKAKAKQMPVEMSRPAVPLLNSNNEKMSDPNMEANSHYGHNDDVRNHAMKPINDNKEPLNSDVQYTEVQVSSAESHKDLGKKDTETVYSEVRKAVPDAVESRYSRTEGSLDGT
With B11, the binding result in experiment [1] is listed as “binds”.

B12: N-CAR PD1-TIM3 (SEQ ID No 1999 with intracellular domain SEQ ID No 2006) (other)
chain: EVQLQQSGPELVKPGTSVRISCKTSGYTFTEYTIHWVKQSHGKSLEWIGNINPNNGGTTYNQKFEDKATLTVDKSSSTAYMELRSLTSEDSAVYYCAAGWNFDYWGQGTTVTVSSGGGGSGGGGSGGGGSDIVMTQSHKFMSTSVGDRVSIICKASQDVGTAVDWYQQKPGQSPKLLIYWASTRHTGVPDRFTGSGSGTDFTLTITNVQSEDLADYFCQQYNSYPLTFGAGTMLDLKRAAATERRAEVPTAHPSPSPRPAGQFQTLVVGVVGGLLGSLVLLVWVLAVICSRAARGTIGARRTGQPLKEDPSAVPVFSVDYGELDFQWREKTPEPPVPCVPEQTEYATIVFPSGMGTSSPARRGSADGPRSAQPLRPEDGHCSWPLFKWYSHSKEKIQNLSLISLANLPPSGLANAVAEGIRSEENIYTIEENVYEVEEPNEYYCYVSSRQQPSQPLGCRFAMP
As to B12, the binding result in experiment [1] was “binds”.

B13: N-CAR PD1-PD1 (SEQ ID No 1999 with intracellular domain SEQ ID No 2005) (other)
chain: EVQLQQSGPELVKPGTSVRISCKTSGYTFTEYTIHWVKQSHGKSLEWIGNINPNNGGTTYNQKFEDKATLTVDKSSSTAYMELRSLTSEDSAVYYCAAGWNFDYWGQGTTVTVSSGGGGSGGGGSGGGGSDIVMTQSHKFMSTSVGDRVSIICKASQDVGTAVDWYQQKPGQSPKLLIYWASTRHTGVPDRFTGSGSGTDFTLTITNVQSEDLADYFCQQYNSYPLTFGAGTMLDLKRAAATERRAEVPTAHPSPSPRPAGQFQTLVVGVVGGLLGSLVLLVWVLAVICSRAARGTIGARRTGQPLKEDPSAVPVFSVDYGELDFQWREKTPEPPVPCVPEQTEYATIVFPSGMGTSSPARRGSADGPRSAQPLRPEDGHCSWPLCSRAARGTIGARRTGQPLKEDPSAVPVFSVDYGELDFQWREKTPEPPVPCVPEQTEYATIVFPSGMGTSSPARRGSADGPRSAQPLRPEDGHCSWPL
In the case of B13, the binding result in experiment [1] is “binds”.

B14: N-CAR LY9 (SEQ ID No 1999 with intracellular domain SEQ ID No 2008) (other)
chain: EVQLQQSGPELVKPGTSVRISCKTSGYTFTEYTIHWVKQSHGKSLEWIGNINPNNGGTTYNQKFEDKATLTVDKSSSTAYMELRSLTSEDSAVYYCAAGWNFDYWGQGTTVTVSSGGGGSGGGGSGGGGSDIVMTQSHKFMSTSVGDRVSIICKASQDVGTAVDWYQQKPGQSPKLLIYWASTRHTGVPDRFTGSGSGTDFTLTITNVQSEDLADYFCQQYNSYPLTFGAGTMLDLKRAAATERRAEVPTAHPSPSPRPAGQFQTLVVGVVGGLLGSLVLLVWVLAVIKRKGRCSVPAFCSSQAEAPADTPEPTAGHTLYSVLSQGYEKLDTPLRPARQQPTPTSDSSSDSNLTTEEDEDRPEVHKPISGRYEVFDQVTQEGAGHDPAPEGQADYDPVTPYVTEVESVVGENTMYAQVFNLQGKTPVSQKEESSATIYCSIRKPQVVPPPQQNDLEIPESPTYENFT
For the molecule B14, the binding result in experiment [1] is reported as “binds”.
